What was measured:
Experiment in all cases: cell_activity
[1] = system: dLbCas12a-T152R-K538W-K595Y T152R,K538W,K595Y (Lachnospiraceae bacterium ND2006); settings: PAM-SCANR in E. coli
[2] = system: dLbCas12a-K538W K538W (Lachnospiraceae bacterium ND2006)
[3] = system: dLbCas12a-G532R-K595R (RR) G532R,K595R (Lachnospiraceae bacterium ND2006); settings: PAM-SCANR in E. coli
[4] = system: dLbCas12a-K538W-K595Y K538W,K595Y (Lachnospiraceae bacterium ND2006)
[5] = system: dLbCas12a-K595Y K595Y (Lachnospiraceae bacterium ND2006)
[6] = system: wt dLbCas12a (catalytically inactive LbCas12a) (Lachnospiraceae bacterium ND2006); settings: PAM-SCANR in E. coli, cutoff 1.67
[7] = system: dLbCas12a-T152R-K538W T152R,K538W (Lachnospiraceae bacterium ND2006); settings: PAM TTTC; printed column identical to K538W+K595Y column
[8] = system: dLbCas12a-T152R T152R (Lachnospiraceae bacterium ND2006); settings: PAM TTTG; PAM-SCANR in E. coli, cutoff 1.67
[9] = PAM CCCC, not recognized by single mutant

crRNA targeting lacI promoter ; lacI promoter reporter, AGCC PAM
binding signal (normalized score) ([1]; PAM AGCC): 13.7

crRNA targeting lacI promoter ; lacI promoter reporter, CCCC PAM
binding signal (normalized score) [2, 9]: < 1.67
binding signal (normalized score) ([3]; PAM CCCC): 3.87
binding signal (normalized score) ([4]; PAM CCCC, PAM-SCANR in E. coli): 2.95
binding signal (normalized score) [5, 9]: < 1.67

crRNA targeting lacI promoter ; lacI promoter reporter, CCGC PAM
binding signal (normalized score) ([6]; PAM CCGC): 2.23

crRNA targeting lacI promoter ; lacI promoter reporter, TCGC PAM
binding signal (normalized score) ([5]; PAM TCGC, PAM-SCANR in E. coli, cutoff 1.67): 3.23

crRNA targeting lacI promoter ; lacI promoter reporter, TGGC PAM
binding signal (normalized score) ([1]; PAM TGGC): 10.3

crRNA targeting lacI promoter ; lacI promoter reporter, TTCG PAM
binding signal (normalized score) ([3]; PAM TTCG): 4.81

crRNA targeting lacI promoter ; lacI promoter reporter, TTTA PAM
binding signal (normalized score) ([2]; PAM TTTA, PAM-SCANR in E. coli, cutoff 1.67, a second K538W column gives 11.18): 4.71
binding signal (normalized score) ([5]; PAM TTTA, TTTV lost in K595Y): < 1.67

crRNA targeting lacI promoter ; lacI promoter reporter, TTTC PAM
binding signal (normalized score) ([6]; PAM TTTC): 2.96
binding signal (normalized score) [7]: 12
binding signal (normalized score) ([4]; PAM TTTC, printed column identical to T152R+K538W column): 12

crRNA targeting lacI promoter ; lacI promoter reporter, TTTG PAM
binding signal (normalized score) [8]: 2.94

From patent US20210115421
